Target: Myc-N1
Assay: co-immunoprecipitation (IP with Myc antibody), quantification of western blot bands
Settings: HEK293 cells, more than 3 independent experiments, read off a plot

Fam65b-GFP (from UniProt Q80U16) RL/AA
response (relative intensity) (control (without HA-RhoC), parent: est. 1.0): 0.47
response (relative intensity) (with HA-RhoC co-expressed, parent: est. 1.7): 0.2

Source: PMC4898930
